Experimental data: paper PMC11989107, “Biochemical and Structural Characterization of a Highly Glucose-Tolerant β-Glucosidase from the Termite Reticulitermes perilucifugus” (International Journal of Molecular Sciences, 2025)

Test system: O=[N+]([O-])c1ccc(O[C@@H]2O[C@H](CO)[C@@H](O)[C@H](O)[C@H]2O)cc1
Test: purified protein
Conditions: 37 °C, 20 mM phosphate buffer pH 7.0, 1-20 mM pNPG

RpBgl8 (Reticulitermes perilucifugus), sequence (chain, as listed by the source): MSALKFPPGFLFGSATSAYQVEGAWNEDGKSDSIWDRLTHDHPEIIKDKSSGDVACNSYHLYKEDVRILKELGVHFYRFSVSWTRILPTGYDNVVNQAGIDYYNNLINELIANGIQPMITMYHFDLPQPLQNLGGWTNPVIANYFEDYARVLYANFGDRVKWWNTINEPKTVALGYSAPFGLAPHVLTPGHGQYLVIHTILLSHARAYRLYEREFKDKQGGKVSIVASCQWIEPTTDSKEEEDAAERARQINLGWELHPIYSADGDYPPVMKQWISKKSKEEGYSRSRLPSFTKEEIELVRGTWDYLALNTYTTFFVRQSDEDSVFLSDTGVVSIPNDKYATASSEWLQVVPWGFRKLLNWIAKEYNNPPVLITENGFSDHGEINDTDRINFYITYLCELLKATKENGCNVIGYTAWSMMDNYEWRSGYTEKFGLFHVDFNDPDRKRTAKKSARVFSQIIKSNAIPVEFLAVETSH

RpBgl8 (Reticulitermes perilucifugus)
Km: 5.4 mM | kcat: 0.17 s⁻¹
